Two molecules from patent publication US20190031748A1 can be followed below.

Assay [1] deals with N-terminal biotin labelled human CGRP (Abgent Custom Synthesized Peptide #355061532) (human) (UniProt P06881). The assay can be described thus: ELISA; Fab captured on anti-human kappa; N-terminal biotin CGRP at 6.667 nM; 2 h dissociation step; neutravidin-AP detection. In general terms: An ELISA detects its analyte on a solid surface through an enzyme-linked reagent.
For assay [2] the target is unchanged. Kind of assay: ELISA; Fab captured on anti-human kappa; N-terminal biotin CGRP at 0.009 nM; 2 h dissociation step; neutravidin-AP detection.
For assay [3] the target is unchanged. The assay can be described thus: ELISA; Fab captured on anti-human kappa; N-terminal biotin CGRP at 0.082 nM; 2 h dissociation step; neutravidin-AP detection.
For assay [4] the target is unchanged. The assay can be described thus: ELISA; Fab captured on anti-human kappa; N-terminal biotin CGRP at 0.247 nM; 2 h dissociation step; neutravidin-AP detection.
For assay [5] the target is unchanged. The assay can be described thus: ELISA; Fab captured on anti-human kappa; N-terminal biotin CGRP at 2.222 nM; 2 h dissociation step; neutravidin-AP detection.
For assay [6] the target is unchanged. Kind of assay: ELISA; Fab captured on anti-human kappa; N-terminal biotin CGRP at 0.027 nM; 2 h dissociation step; neutravidin-AP detection.
Assay [7] shares this target. The assay can be described thus: ELISA; Fab captured on anti-human kappa; N-terminal biotin CGRP at 0.741 nM; 2 h dissociation step; neutravidin-AP detection.
Assay [8] has the same target. Kind of assay: ELISA; Fab captured on anti-human kappa; N-terminal biotin CGRP at 20 nM; 2 h dissociation step; neutravidin-AP detection.
The target of assay [9] is human CGRP (human) (UniProt P06881). The assay can be described thus: Quanterix Simoa sandwich assay; Antibody II beads capture, biotinylated CA11 detection; CGRP at 0.0076 pg/mL.
Assay [10] shares this target. The assay can be described thus: Quanterix Simoa sandwich assay; Antibody II beads capture, biotinylated CA11 detection; CGRP at 50 pg/mL.
The target is the same in assay [11]. Kind of assay: Quanterix Simoa sandwich assay; Antibody II beads capture, biotinylated CA11 detection; CGRP at 0.07 pg/mL.
For assay [12] the target is unchanged. The assay can be described thus: Quanterix Simoa sandwich assay; Antibody II beads capture, biotinylated CA11 detection; CGRP at 0.62 pg/mL.
The target is the same in assay [13]. Kind of assay: Quanterix Simoa sandwich assay; Antibody II beads capture, biotinylated CA11 detection; CGRP at 5.56 pg/mL.
Assay [14] shares this target. The assay can be described thus: Quanterix Simoa sandwich assay; Antibody II beads capture, biotinylated CA11 detection; CGRP at 0.21 pg/mL.
The target is the same in assay [15]. Kind of assay: Quanterix Simoa sandwich assay; Antibody II beads capture, biotinylated CA11 detection; CGRP at 16.67 pg/mL.
For assay [16] the target is unchanged. The assay can be described thus: Quanterix Simoa sandwich assay; Antibody II beads capture, biotinylated CA11 detection; CGRP at 1.85 pg/mL.
Assay [17] has the same target. Kind of assay: Quanterix Simoa sandwich assay; Antibody II beads capture, biotinylated CA11 detection; CGRP at 0.02 pg/mL.

B1: CA11 Fab (Fab, V domains shown)
VH: EVQLQQSGPELVKPGASVKMSCKASGYTFTRSVMHWVKQKPGQGLEWIGYINPYNDGTKYNEKFKGKATLTSDKSSSTAYMELSSLTSEDSAVYYCAKSGNDGYWGQGTTLTVSS
VL: EIVLTQSPTTMAASPGEKITITCSASSSISSIYLHWYQQKPGFSPKVLIYRAKNLASGVPARFSGSGSGTSYSLTIGTMEAEDVATYYCQQGSTIPFTFGSGTKLEIK
Regarding B1, the A560 in assay [1] was found to be 1.03 A560; in [2], 0.082 A560; in assay [3], 0.091 A560; in assay [4] it was 0.165 A560; in assay [5], 0.688 A560; in [6], 0.063 A560. Besides, the A560 is 0.356 A560 in assay [7] and 1.05 A560 in assay [8].

B2: CA11 antibody (mouse IgG1/kappa) (antibody, V domains shown)
VH: EVQLQQSGPELVKPGASVKMSCKASGYTFTRSVMHWVKQKPGQGLEWIGYINPYNDGTKYNEKFKGKATLTSDKSSSTAYMELSSLTSEDSAVYYCAKSGNDGYWGQGTTLTVSS
VL: EIVLTQSPTTMAASPGEKITITCSASSSISSIYLHWYQQKPGFSPKVLIYRAKNLASGVPARFSGSGSGTSYSLTIGTMEAEDVATYYCQQGSTIPFTFGSGTKLEIKR
Turning to B2, the Average AEB (AEB (average enzyme per bead)) in the assay with human CGRP (human) [9] was 0.0079; with human CGRP (human) [10], 2.99; in the assay with human CGRP (human) [11], 0.011; with human CGRP (human) [12] it was 0.06; in the assay with human CGRP (human) [13], 0.42; in the assay with human CGRP (human) [14], 0.02. Moreover, the Average AEB (AEB (average enzyme per bead)) with human CGRP (human) [15] was 1.18; with human CGRP (human) [16], 0.13; in the assay with human CGRP (human) [17] it was 0.0075.
